Experimental data reported in the DeepSol protein solubility set.

Experiment: soluble on expression in E. coli; label from the status in PepcDB or PDB records

Sequence	soluble on expression in E. coli
MNALLRFTLGLCSMTLLAGCGENIDHSKIRSSGFVYCGESAPTTFNPQLADNDITSDALGPQIYNTLLTIDPETHLPVASLASSWTVNSTGLEYVFKLRPDVAFQTTPWFSPTRPLNADDVVFSFRRIIDPTNPYHKVGQTQYPWFKGIDFQNLLVDVSALDDLTVKFVLSRPDNSFLSNIATSHAVILSLEYANQLIIDDEKEKLDNLPLGTGPFYLAEYHPRDLIRLKRHPQYWEGAAKVEQVVFDISQRGTGMLAKLLRNECDVLNAPISSQLPAIEKNPDIVLQTTPAMNVAFIAVNTQHPALNDNRVRKALNFAINRQNILDSVYYGTGSIAFTILPPTSWAYQQDTAQIRYDRNYAQALLREAGFATGLELTMSVPVEPKAYNPSPRKTAELIQANLADIGVTLRLISEDRSERQELSIRNNIDLYLSGWTGDTGDPDNFLRPLLSCDSNRAGLNVSMWCDSDFDFLLDLALEANKPRYRLNLYHQAQNILNQEFPVIPLAHGIQFTAYSKSLTGIRISPFNVQPFNTVERVAE	not soluble
MNASDFRRRGKEMVDYMADYLEGIEGRQVYPDVQPGYLRPLIPATAPQEPDTFEDILQDVEKIIMPGVTHWHSPYFFAYFPTASSYPAMLADMLCGAIGCIGFSWAASPACTELETVMMDWLGKMLQLPEAFLAGEAGEGGGVIQGSASEATLVALLAARTKVVRRLQAASPGLTQGAVLEKLVAYASDQAHSSVERAGLIGGVKLKAIPSDGKFAMRASALQEALERDKAAGLIPFFVVATLGTTSCCSFDNLLEVGPICHEEDIWLHVDAAYAGSAFICPEFRHLLNGVEFADSFNFNPHKWLLVNFDCSAMWVKRRTDLTGAFKLDPVYLKHSHQGSGLITDYRHWQLPLGRRFRSLKMWFVFRMYGVKGLQAYIRKHVQLSHEFEAFVLQDPRFEVCAEVTLGLVCFRLKGSDGLNEALLERINSARKIHLVPCRLRGQFVLRFAICSRKVESGHVRLAWEHIRGLAAELLAAEEGKAEIKS	soluble
MNCRLGCGACCIAPSISSVIPGMPNGKAAGERCVQLSDDNLCLIFGSPERPAVCCDFEASLDVCGHSNEEALWLITNLESQTS	soluble
MNDATPDQLRTGPSRETPRFQQIVQDIKRRIADGSLSEHAALPSERRIAEETGISRMTARRALDALEAEGLVYSADRRGRFVSPKRVSYDVSNLVSFVADAESRGTALGIEVIRAQEGKADPALAARLELEPGAAIHEYTRLFRQDGHAIFVETEYVDARRCPDFLSHDLHQSTTRLLESQYDLVARTGDIVIRMRGAHPEETHLLGLAQSQSGIELTQVIRDASGRPFCFGRQFWRGEMAEFSARAIVGGSIHG	not soluble
MNDFHRDTWAEVDLDAIYDNVENLRRLLPDDTHIMAVVKANAYGHGDVQVARTALEAGASRLAVAFLDEALALREKGIEAPILVLGASRPADAALAAQQRIALTVFRSDWLEEASALYSGPFPIHFHLKMDTGMGRLGVKDEEETKRIVALIERHPHFVLEGLYTHFATADEVNTDYFSYQYTRFLHMLEWLPSRPPLVHCANSAASLRFPDRTFNMVRFGIAMYGLAPSPGIKPLLPYPLKEAFSLHSRLVHVKKLQPGEKVSYGATYTAQTEEWIGTIPIGYADGWLRRLQHFHVLVDGQKAPIVGRICMDQCMIRLPGPLPVGTKVTLIGRQGDEVISIDDVARHLETINYEVPCTISYRVPRIFFRHKRIMEVRNAIGRGESSA	soluble
MNDGKISILVLGADKAQGGQSRTDSIMVVQYDFINKKMKMMSVMRDIYADIPGYGKHKINSAYALGGPKLLRKTLDKNLGINPEYYAVVDFTGFEKMIDELMPEGVPINVEKDMSKNIGVSLKKGNHRLNGKELLGYARFRHDPEGDFGRVRRQQQVMQTLKKEMVNFRTVVKLPKVAGILRGYVNTNIPDSGIFQTGLSFGIRGEKDVKSLTVPIKNSYEDVNTNTDGSALQINKNTNKQAIKDFLDEDLEHHHHHH	soluble
MNDTPDDTFVSGYLLYLLAASSEEASAQFHDHIRAQGLRVPEWRVLACLVDNDAMMITRLAKLSLMEQSRMTRIVDQMDARGLVTRVADAKDKRRVRVRLTDDGRALAESLVASARAHETRLLSALADTDAARIKGVLRTLLDVLDRPRESR	soluble
MNEHHQPFEEIKLINANGAEQWSARQLGKLLGYSEYRHFIPVLTRAKEACENSGHTIDDHFEEILDMVKIGSNAKRALKDIVLSRYACYLVVQNGDPAKPVIAAGQTYFAIQTRRQELADDEAFKQLREDEKRLFLRNELKEHNKQLVEAAQQAGVATATDFAIFQNHGYQGLYGGLDQKAIHQRKGLKKNQKILDHMGSTELAANLFRATQTEEKLKRDGVNSKQQANTTHFDVGRKVRQTIQELGGTMPEELPTPQVSIKQLENSVKITEKK	soluble
MNEILKTEDEVVRWSVKKINDDTTLIEFELKRDLVPEDLKKINPPDAVKNKFANTFIVLSGRGPIWLYGFLIHFYHPTKGIGVFDPRLGGAVVVSSHSPNKKVGDVIKWEG	not soluble
MNEMTLLYSPSCWVPGKNRDEVMNDFFAGIKNAFEALKNDEKIPRKENVAYGMEENQKVDIWGDASDKLLIFIHGGYWAAGTRKDCLTPARCALNNEYAFASVGYGLSTEGRTLTETVEDVVNGVDFILKLYPNVSNVLVGGHSAGAHLAMNAVARLRNPRIRGLLLFSGCYFLEELIGTEIGTDINLTTDQAKLNSCDLSKLDGLKLDSLVILGLQEAPKLIEQNRDFVAQQGQSRIEEFPNSGHYTIMTNLLNHTSGEYLAMEKFLKNF	not soluble
MNEQVHARLKALARPMTGEEYLESLRDGREVYFMGERVKDVTTHPAFRNTARMFARWYDRLHELHKEDLERSKDPSGWKWTVPTESGNGWTHPFFVGPRSAEDLLKARDTIAELQRTVYGWGGRSPDYKAAFVGTLGPNAEFYAPYQENARRWYKETQEKLLYWNHAIVNPPVDRHKPVEEVGDVYMHVERETDAGIVVSGAKVVATGSAFTHVNFIAHYGPLPIKDKKFALIFVVPMDAKGVKLISRASYEFIAAKTGSPFDYPLSSRLDENDAILVFDNVLVPWENVFVYGDVEKVNAFFPLSGFVHRFPFQGCTRLAVKLDFIAGLTMKALDVTGASQFRGVQARLGEILTYRNLFWALTEAMARDPMPWVDGYVLPNLWAGLTYRVLAPEVYPKIKDIIERDLASALIYLPSHAKDFQNPQIRRYLDQYVRGNGVDAVTRVKIMKALWDAVGTEFGGRHELYERNYAGNHENIRIEVLGAMEAAGVNEALRAFVDKFLGEYDLEGWKVPDLINPTEA	soluble
MNEQWLEHLPLKDIKEISPVSGGDVNEAYRVETDTDTFFLLVQRGRKESFYAAEIAGLNEFERAGITAPRVIASGEVNGDAYLVMTYLEEGASGSQRQLGQLVAQLHSQQQEEGKFGFSLPYEGGDISFDNHWQDDWCTIFVDKRLDHLKDELLNRGLWDANDIKVYDKVRRQIVAELEKHQSKPSLLHGDLWGGNYMFLKDGRPALFDPAPLYGDREFDIGITTVFGGFTSEFYDAYNKHYPLAKGASYRLEFYRLYLLMVHLLKFGEMYRDSVAHSMNKILQDTTSLEHHHHHH	not soluble
MNGASPAHSLVSTTAVAGGGGSSGAAAGLDDFHFPPDIPSMQERKDEAMRVLKADLMTELDKEVKSLEEDSWMFEGPRSRIHLISRRGNFLKKGGEVKLW	not soluble
MNGGCDLWIGCARWLRDMKVLTTDKNGTMLEFASVLRDGILLCRLANTLVPNGIDQKKIMRTNQPSPFLCCNNINYFAMFCKTYFNLEDADLFTAEDLYYMNGFQKVLKTLSFLSHTKESLSRGVDPFPDTDNNQEGTSNGSEFEDDVEIYQSLHDNIENVDPNRTIYGPITSADPEEQQSEQLYDRIVTNRKPSMNENDLQNTPTLKRNRCIRELYDTEKNYVAQALVTIIKTFYEPLKGIIPTSDYNIIFGNIEEINVLHTALLADLEYPVKVALGLSDATPPRPISLNECVPQTIGEVFIKYRDQFLAYGKYCSNLPDSRKLSNELLKTNEFISRNINELTAQGNCKFGMNDLLCVPFQRLTKYPLLLKELQKKTDLASPDRKSLEEAVEVMEDVCNYINEESRDTNAIKVIDEIEQSITDLSMPLNVKLHDYGRVNLDGEVKMAESTLTQAGKPKQRYIFLFDKVIVVCKAANKVMAAKTTGASARTNTFTYKNAYVMSELTIDKNASLDVKSGGTITRRTQYVIIMTRDRNENNEITQLTFYFKNEATRNNWMTALLLSKSNVSPTDYLRDTNHKVAFHSFRVDVKNPATCDVCDKLMKGLQYQGYKCEFHEGDIVVANSNSTPSDLSYLQFAKGDRIEVIKMQGHNRFTGCLINNRNRTGLVHLDHVSQSRTTSMIGLSPIDSPAGSIAPRVVRNESTVLPNKLLSDGSSRSLSGPHGSRSSRNSSSSTINGSMDSVPRQQDYVNTEISEFLWYMGEMERAKAESTLKGTPNGTFLVRYSKNRKQTAISLSYKNDVKHMIIEQNSDGKVYLDEDYIFNSTVELVQYYRSNNLIEIFAALDTCLKNPYSQCKVFKAVHDYDAPSPNNEGKFLSFKTGDIVVLLDTVGEDRGWWKGQVNNKSGFFPLSYVKPYDPATEGSSSPVTPTSSSS	not soluble
MNGGTFTTGKEKERAGIYFNFKTTAQERVSLSERGTVALPVASSWGEAKTFVSISSVEDLNKKVGLSIDDPSLLLLREAKKNAKTVLMYRLTEGVRASADIAEGVKATAVYGGTKGNDIIIRINQNVLDANSFDVTTYMDESEVDKQTVKKAEELTANGYVTFTGTGDLSSTIPLTGSEGDTAAETLNASAGIRLSGGTDKAPVNSDYTDFLAAAETESFDVIALPVAEGDQLKATFAAFIKRLRDGQGQKVQGVTANYAGDYEGIINVTEGVLLEDGTEVTPDKATAWVAGASAGATFNQSLTFVEYEGAVDVLHRLDHDTIVERLGKGEFLFTFDARDKSVSVEKDINSLVTFTAEKNKKFAKNKIVRVLDAVNNDLTRELKALIKSRKGSGSDIPASEDGLQYVKTMITQYMTTLQDAGGITGFDSDEDITISMNEDRDGFLIDLLYSLSTQQKNSTLMWRLEHHHHHH	soluble
MNGIFIEDKRLGIRLPHLDKPWEDYSPNEQEAILLEWETIRGLIPDRIAELEREINKKQDELGQEADFARSCQLNADIAELASIVNDLWIWYRIVPSVSSRHGKKRVEKP	not soluble
MNGKRPAEPGPARVGKKGKKEVMAEFSDAVTEETLKKQVAEAWSRRTPFSHEVIVMDMDPFLHCVIPNFIQSQDFLEGLQKELMNLDFHEKYNDLYKFQQSDDLKKRREPHISTLRKILFEDFRSWLSDISKIDLESTIDMSCAKYEFTDALLCHDDELEGRRIAFILYLVPPWDRSMGGTLDLYSIDEHFQPKQIVKSLIPSWNKLVFFEVSPVSFHQVSEVLSEEKSRLSISGWFHGPSLTRPPNYFEPPIPRSPHIPQDHEILYDWINPTYLDMDYQVQIQEEFEESSEILLKEFLKPEKFTKVCEALEHGHVEWSSRGPPNKRFYEKAEESKLPEILKECMKLFRSEALFLLLSNFTGLKLHFLAPSEEDEMNDKKEAETTDITEEGTSHSPPEPENNQMAISNNSQQSNEQTDPEPEENETKKESSVPMCQGELRHWKTGHYTLIHDHSKAEFALDLILYCGCEGWEPEYGGFTSYIAKGEDEELLTVNPESNSLALVYRDRETLKFVKHINHRSLEQKKTFPNRTGFWDFSFIYYE	not soluble
MNGSKENAMKIDLNSDMGEGFGPYRLCDDEAMMKIVSSANIACGFHGGDPDTMARMVRLAKANGVGIGAHPGLPDRAGFGRREIPFQPDELRQQMLYQLGALMAIAGAEGMKVGHFSFHAAMGNMVNRDPVLADLMMNAIATVDPRLVVFVTPESEIERAAKRAGLKTLALFLADRAYDAEGRLVARGLPGALVKDETSVRARVRRFLTHGQVEAIDGTIIAMPAHSILVHSDTPGSLELARIIRSEIEASGATLAPAAEHAALEHHHHHH	soluble
MNGTGNTILVTGGTSGIGLGLALRLHKAGNKVIIAGRRKALLDKIVSEHPGIESVVLDVTDPHSIQHSSEALAISHPNLNVLINNAGIMHWEDLTDAKYLSTAENIVTTNLLGTIRMVYAFTPNLLKQPSATIVNVSSALAFVPLPATPTYSATKAAVHSFTQSLRVQLADSPVEVIELAPPGVRTTLLGQENDEHAMPLEAFLDEIFKLLDISPTPQELVVERAKPLRFAEANGSHGEVLKMLAGYKPPAE	not soluble
